The text below walks through data of patent EP2004352B1 (Palatin Technologies, Inc., dated 2012).

Assay [1] has as its target T1, human natriuretic peptide receptor A (NPRA) (human, UniProt P16066 33-1061).
T1 sequence (looked up): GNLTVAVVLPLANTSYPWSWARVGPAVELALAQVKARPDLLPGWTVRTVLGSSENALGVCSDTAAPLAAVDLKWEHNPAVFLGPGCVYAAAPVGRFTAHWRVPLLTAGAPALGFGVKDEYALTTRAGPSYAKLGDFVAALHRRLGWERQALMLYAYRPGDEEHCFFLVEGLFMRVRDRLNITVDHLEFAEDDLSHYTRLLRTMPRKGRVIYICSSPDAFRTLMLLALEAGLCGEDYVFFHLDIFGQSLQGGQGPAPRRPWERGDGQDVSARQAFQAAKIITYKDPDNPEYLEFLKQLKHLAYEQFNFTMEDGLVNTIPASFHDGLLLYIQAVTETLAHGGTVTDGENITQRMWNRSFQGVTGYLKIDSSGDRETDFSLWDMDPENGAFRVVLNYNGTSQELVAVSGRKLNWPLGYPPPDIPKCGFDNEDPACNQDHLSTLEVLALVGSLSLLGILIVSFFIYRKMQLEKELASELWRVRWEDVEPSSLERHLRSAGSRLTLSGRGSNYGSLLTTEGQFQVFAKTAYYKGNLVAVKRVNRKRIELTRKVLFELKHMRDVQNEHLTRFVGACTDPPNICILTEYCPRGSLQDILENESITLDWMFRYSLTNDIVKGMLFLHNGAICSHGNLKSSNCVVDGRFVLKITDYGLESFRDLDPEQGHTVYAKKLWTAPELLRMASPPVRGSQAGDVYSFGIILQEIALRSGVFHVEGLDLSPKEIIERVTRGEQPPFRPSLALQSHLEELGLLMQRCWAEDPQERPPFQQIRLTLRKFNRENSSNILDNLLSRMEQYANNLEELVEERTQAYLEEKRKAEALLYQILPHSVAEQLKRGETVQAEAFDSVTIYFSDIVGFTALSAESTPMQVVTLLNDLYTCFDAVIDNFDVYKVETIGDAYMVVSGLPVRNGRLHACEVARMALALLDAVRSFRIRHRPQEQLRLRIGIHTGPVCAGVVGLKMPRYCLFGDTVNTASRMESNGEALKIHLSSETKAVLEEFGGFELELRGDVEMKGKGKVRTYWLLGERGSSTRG
Nature of the assay: cell-based or functional assay.

Assay [2] addresses T1, human natriuretic peptide receptor A …. As to the kind of experiment: competition with [125I]-ANP on HEK-hNPRA membrane homogenates.

Bridge positions count the residues as written; N and C are the ends.

B1: mini-ANP, H-Met-cyclo(Cys-His-Phe-Gly-Gly-Arg-Met-Asp-Arg-Ile-Ser-Cys)-Tyr-Arg-NH2 (peptide)
peptide: H-MCHFGGRMDRISCYR-NH2
modifications: disulfide 2-13
SMILES: CC[C@H](C)[C@@H]1NC(=O)[C@H](CCCNC(=N)N)NC(=O)[C@H](CC(=O)O)NC(=O)[C@H](CCSC)NC(=O)[C@H](CCCNC(=N)N)NC(=O)CNC(=O)CNC(=O)[C@H](Cc2ccccc2)NC(=O)[C@H](Cc2c[nH]cn2)NC(=O)[C@@H](NC(=O)[C@@H](N)CCSC)CSSC[C@@H](C(=O)N[C@@H](Cc2ccc(O)cc2)C(=O)N[C@@H](CCCNC(=N)N)C(N)=O)NC(=O)[C@H](CO)NC1=O
notes: also called min-ANP; parent polypeptide
B1: in assay [1], the “EC50 (cGMP accumulation)” value was 3.3 nM. In addition, in assay [2], the Ki (commonly a measure of affinity in units of concentration, obtained from inhibition or displacement) was 0.6 nM.
